Patent publication US20080319173A1

Target: PSGL-1/mIgG2b produced in CHO cells with FUT2 (Se gene) and α1,3 GalNAcT (A gene) (mouse)
Experiment: western blot, chemiluminescence volumes (Fluor-S Max MultImager), anti-A signal divided by anti-mIgG signal

relative A epitope density (ratio of blood group A to mIgG reactivity), fold over PSGL-1/mIgG2b made in 293T cells with FUT2 and the A gene: 3 fold
Substance: mouse anti-human blood group A all types (mIgM, Dako) (antibody)
